Test results taken from the RNAGym collection of RNA variant scans (doi:10.7554/elife.80360).

B1: CPEB3 Ribozyme (parent)
chain: GGGGGCCACAGCAGAAGCGUUCACGUCGCGGCCCCUGUCAGAUUCUGGUGAAUCUGCGAAUUCUGCUGU

Variants of: B1
Test: self-cleavage, relative activity (ratio to wild type); higher = more cleavage; co-transcriptional

Variant | self-cleavage
GGGGGCCACAGCAGAAUCGUUCACGUCGCGGCCCCUGUCAGAUUUUGGUGAAUCUGCGAAUUCUGCUGU [G17U C45U] | 0.528
GGGGGCCACAGCAGAAUCGUUCACGUCGCGGCCCCUGUCAGAUUCUGGUGAAUCUGUGAAUUCUGCUGU [G17U C57U] | 0.228
GGGGGCCACAGCAGAAUCGUUCACGUGGCGGCCCCUGUCAGAUUCUGGUGAAUCUGCGAAUUCUGCUGU [G17U C27G] | 0.185
GGGGGCCACAGCAGAAUCGUUCACGUAGCGGCCCCUGUCAGAUUCUGGUGAAUCUGCGAAUUCUGCUGU [G17U C27A] | 0.132
GGGGGCCACAGCAGAAUCGUUCACGUCGCGGCCCCUGUCAGAUUCUGCUGAAUCUGCGAAUUCUGCUGU [G17U G48C] | 0.635
GGGGGCCACAGCAGAAUCGUUCACGUCGCGGCCCCUGUCAGAUUCUGUUGAAUCUGCGAAUUCUGCUGU [G17U G48U] | 0.694
GGGGGCCACAGCAGAAUCGUUCACGUCGCGGCCCCUGUCAGAUUCUGGUGAAUGUGCGAAUUCUGCUGU [G17U C54G] | 0.166
GGGGGCCACAGCAGAAUCGUUCACGUCGCCGCCCCUGUCAGAUUCUGGUGAAUCUGCGAAUUCUGCUGU [G17U G30C] | 0.119
GGGGGCCACAGCAGAAUCGUUCACGUCGCUGCCCCUGUCAGAUUCUGGUGAAUCUGCGAAUUCUGCUGU [G17U G30U] | 0.168
GGGGGCCACAGCAGAAUCUUUCACGUCGCGGCCCCUGUCAGAUUCUGGUGAAUCUGCGAAUUCUGCUGU [G17U G19U] | 0.123
GGGGGCCACAGCAGAAUCAUUCACGUCGCGGCCCCUGUCAGAUUCUGGUGAAUCUGCGAAUUCUGCUGU [G17U G19A] | 0.209
GGGGGCCACAGCAGAAUCGUUCACGUCGCGUCCCCUGUCAGAUUCUGGUGAAUCUGCGAAUUCUGCUGU [G17U G31U] | 0.169
GGGGGCCACAGCAGAAUCGUUCACGUCGCGCCCCCUGUCAGAUUCUGGUGAAUCUGCGAAUUCUGCUGU [G17U G31C] | 0.129
GGGGGCCACAGCAGAAUCGUUCACGUCGCGACCCCUGUCAGAUUCUGGUGAAUCUGCGAAUUCUGCUGU [G17U G31A] | 0.191
GGGGGCCACAGCAGAAUCGUUCACCUCGCGGCCCCUGUCAGAUUCUGGUGAAUCUGCGAAUUCUGCUGU [G17U G25C] | 0.107
GGGGGCCACAGCAGAAUCGUUCACAUCGCGGCCCCUGUCAGAUUCUGGUGAAUCUGCGAAUUCUGCUGU [G17U G25A] | 0.143
GGGGGCCACAGCAGAAUCGUUCACGUCGCGGCCCCUGUCAAAUUCUGGUGAAUCUGCGAAUUCUGCUGU [G17U G41A] | 0.152
GGGGGCCACAGCAGAAUCGUUCACGUCGCGGCCCCUGUCAUAUUCUGGUGAAUCUGCGAAUUCUGCUGU [G17U G41U] | 0.194
GGGGGCCACAGCAGAAUCGUUCACGUCGCGGCCCCUGUCACAUUCUGGUGAAUCUGCGAAUUCUGCUGU [G17U G41C] | 0.14
GGGGGCCACAGCAGAAUCGUUCACGUCGCGGCCCCUAUCAGAUUCUGGUGAAUCUGCGAAUUCUGCUGU [G17U G37A] | 0.175

Variant | self-cleavage
GGGGGCCACAGCAGAAUCGUUCACGUCGCGGCCCCUUUCAGAUUCUGGUGAAUCUGCGAAUUCUGCUGU [G17U G37U] | 0.169
GGGGGCCACAGCAGAAUCGUUCACGUCGCGGCCCCUCUCAGAUUCUGGUGAAUCUGCGAAUUCUGCUGU [G17U G37C] | 0.159
GGGGGCCACAGCAGAAUCGUUCGCGUCGCGGCCCCUGUCAGAUUCUGGUGAAUCUGCGAAUUCUGCUGU [G17U A23G] | 0.331
GGGGGCCACAGCAGAAUCGUUCCCGUCGCGGCCCCUGUCAGAUUCUGGUGAAUCUGCGAAUUCUGCUGU [G17U A23C] | 0.462
GGGGGCCACAGCAGAAUGGUUCACGUCGCGGCCCCUGUCAGAUUCUGGUGAAUCUGCGAAUUCUGCUGU [G17U C18G] | 0.138
GGGGGCCACAGCAGAAUUGUUCACGUCGCGGCCCCUGUCAGAUUCUGGUGAAUCUGCGAAUUCUGCUGU [G17U C18U] | 0.155
GGGGGCCACAGCAGAAUAGUUCACGUCGCGGCCCCUGUCAGAUUCUGGUGAAUCUGCGAAUUCUGCUGU [G17U C18A] | 0.137
GGGGGCCACAGCAGAAUCGUUCACGUCGCGGCCCCUGUCAGAUUCUGGUUAAUCUGCGAAUUCUGCUGU [G17U G50U] | 0.552
GGGGGCCACAGCAGAAUCGUUCACGUCGCGGCCCCUGUCAGAUUCUGGUCAAUCUGCGAAUUCUGCUGU [G17U G50C] | 0.386
GGGGGCCACAGCAGAAUCGUUCACGUCGCGGCCCCUGUCAGAUUCUGGUAAAUCUGCGAAUUCUGCUGU [G17U G50A] | 0.571
GGGGGCCACAGCAGAAUCGUUCACGUCGCGGCCCAUGUCAGAUUCUGGUGAAUCUGCGAAUUCUGCUGU [G17U C35A] | 0.214
GGGGGCCACAGCAGAAUCGUUCACGUCGCGGCCCGUGUCAGAUUCUGGUGAAUCUGCGAAUUCUGCUGU [G17U C35G] | 0.227
GGGGGCCACAGCAGAAUCGUUCACGUCGCGGCCCUUGUCAGAUUCUGGUGAAUCUGCGAAUUCUGCUGU [G17U C35U] | 0.338
GGGGGCCACAGCAGAAUCGUUCACGUCGCGGCCCCUGUCAGAUUCUGGUGAGUCUGCGAAUUCUGCUGU [G17U A52G] | 0.585
GGGGGCCACAGCAGAAUCGUUCACGUCGCGGCCCCUGUCAGAUUCUGGUGACUCUGCGAAUUCUGCUGU [G17U A52C] | 0.5
GGGGGCCACAGCAGAAUCGUUCACGUCGCGGCACCUGUCAGAUUCUGGUGAAUCUGCGAAUUCUGCUGU [G17U C33A] | 0.228
GGGGGCCACAGCAGAAUCGUUCACGUCGCGGCUCCUGUCAGAUUCUGGUGAAUCUGCGAAUUCUGCUGU [G17U C33U] | 0.347
GGGGGCCACAGCAGAAUCGUUCACGUCGCGGCCGCUGUCAGAUUCUGGUGAAUCUGCGAAUUCUGCUGU [G17U C34G] | 0.177
GGGGGCCACAGCAGAAUCGUUCACGUCGCGGCCUCUGUCAGAUUCUGGUGAAUCUGCGAAUUCUGCUGU [G17U C34U] | 0.514
